Source: publication PMC9519379 (Cell Reports Medicine, 2022)

Molecular target: SARS-CoV-2 Spike Trimer (B.1.617.2/Delta) (SARS-CoV-2) (UniProt P0DTC2)
Assay: single-molecule force spectroscopy

Substance: H84T-banana lectin (H84T-BanLec) (from UniProt Q8L5H4 1-141) (designed binder)
- IC50: 3.9 nM
